Data: patent publication US20220396632A1 (VERSEAU THERAPEUTICS, published 2022)
Where a chain is given by its changes, count along the chain named.

What was measured:
[1] = target: T1, Recombinant human PSGL-1(ECD)-hFc1 (R&D Systems, Cat. 3345-PS) (human, UniProt Q14242 42-305); assay: ELISA, plate-bound target
T1 construct: Bought; Gln42-Val295 counted on AAC50061; also called PSGL-1-Fc; PSGL-1-hFc1 chimera; not shown: human IgG1 Fc, Pro100-Lys330
T1 sequence: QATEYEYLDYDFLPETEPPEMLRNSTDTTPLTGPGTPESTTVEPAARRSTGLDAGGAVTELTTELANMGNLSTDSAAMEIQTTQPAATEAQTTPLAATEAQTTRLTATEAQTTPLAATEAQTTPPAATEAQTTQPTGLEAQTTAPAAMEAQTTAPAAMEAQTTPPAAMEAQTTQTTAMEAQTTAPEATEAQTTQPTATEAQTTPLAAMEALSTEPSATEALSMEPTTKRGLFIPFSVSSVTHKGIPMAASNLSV
Experimental: (§1) Two ELISA methods were performed. One procedure detected mAb binding to its plate-immobilized target and the other measured the immobilized antibody's ability to capture biotinylated PSGL-1₄₂₋₆₂. […] The plate was incubated for 45 min at 37° C. Plates were washed 3 times with wash buffer (PBS containing 0.05% tween 20, pH 7.4) and a single concentration (2 to 500 nM) or serially diluted (0.002-100 nM) anti-PSGL-1 mAb was added (25 ul/well) in assay buffer into appropriate wells. The plate was incubated for 45 min at 37° C., washed 3 times, and an appropriate HRP-conjugated secondary antibody added (25 ul/well) (HRP goat anti-mouse or anti-human IgG). After 45 min incubation at 37° C., the plate was washed, and antibody bound to plate-immobilized target was determined at A450 nm using HRP substrate (3,3′,5,5′-etramethylbenzidine (TMB)). For each antibody, duplicate values were averaged and assay background was subtracted. Except for the following, ELISAs involving plate-immobilized mAb capturing of biotinylated PSGL-1₄₂₋₆₂ peptides was performed in the same manner as described above: 3 ug/mL/25 ul per well of mAb was coated directly onto microtiter plate wells; biotinylated unmodified or sulfotyrosine PSGL-1₄₂₋₆₂ was serially diluted (3 nM-3 uM) into appropriate wells, and antibody-bound peptide was detected using HRP-streptavidin (Jackson Immunoresearch, Cat. #016-030-084).

[2] = target: T2, Biotin Y46,48,51(SO3) PSGL-1(42-62) peptide (human, sulfotyrosine at Y46, Y48 and Y51; C-terminal Lys-biotin); assay: ELISA, plate-bound target
T2 construct: also called fully sulfated N-terminal PSGL-1 peptide
T2 peptide: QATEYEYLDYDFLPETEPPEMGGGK
Experimental: as §1

[3] = target: T3, Biotin sY51 PSGL-1(42-62) peptide (human, sulfotyrosine at Y51; C-terminal Lys-biotin); assay: capture ELISA; against 3 x sY peptide
T3 construct: also called Y51(SO3) PSGL-1(42-62)
T3 peptide: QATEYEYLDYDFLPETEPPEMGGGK
Experimental: as §1

[4] = target: T2, Biotin Y46,48,51(SO3) PSGL-1(42-62) …; assay: capture ELISA; against 3 x sY peptide
Experimental: as §1

[5] = target: T4, Biotin sY48 PSGL-1(42-62) peptide (human, sulfotyrosine at Y48; C-terminal Lys-biotin); assay: capture ELISA; against 3 x sY peptide
T4 construct: also called sY48S
T4 peptide: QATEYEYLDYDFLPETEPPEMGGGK
Experimental: as §1

[6] = target: T3, Biotin sY51 PSGL-1(42-62) peptide; assay: ELISA, plate-bound mAb captures biotin peptide
Experimental: as §1

[7] = target: T2, Biotin Y46,48,51(SO3) PSGL-1(42-62) …; assay: ELISA, plate-bound mAb captures biotin peptide
Experimental: as §1

[8] = target: T4, Biotin sY48 PSGL-1(42-62) peptide; assay: ELISA, plate-bound mAb captures biotin peptide
Experimental: as §1

[9] = target: T5, Biotin sY46 PSGL-1(42-62) peptide (human, sulfotyrosine at Y46; C-terminal Lys-biotin); assay: ELISA, plate-bound mAb captures biotin peptide
T5 peptide: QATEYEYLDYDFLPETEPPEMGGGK
Experimental: as §1

[10] = target: T2, Biotin Y46,48,51(SO3) PSGL-1(42-62) …; assay: capture ELISA; against parent 18F02
Experimental: (§2) A typical ELISA for N-terminal PSGL-1 reactive humanized mAbs binding to Y_{46,48,51}(SO₃) PSGL-1₍₄₂₋₆₂₎ involved coating high binding half-well plates (Corning Cat. #3690) with 3 ug/mL/25 ul per well of the mAbs or with an isotype hG4 control in PBS, pH 7.4, overnight at 4° C. […] Biotinylated Y_{46,48,51}(SO₃) PSGL-1₍₄₂₋₆₂₎ was added (25 ul per well) in duplicate at 2.8 uM in assay buffer (blocking buffer containing 0.05% tween 20) and serially diluted into test and control (just blocked) wells, and the plate incubated for 45 min at 37° C. The plate was washed ×3 and an appropriate HRP-conjugated streptavidin was added (25 ul per well; Jackson Immunoresearch, Cat. #016-030-084) and the plate was incubated for 45 min at 37° C. […] For each antibody, an EC50 value was determined from sigmoidal fitted peptide titration curve.

[11] = target: T2, Biotin Y46,48,51(SO3) PSGL-1(42-62) …; assay: ELISA, plate-bound mAb captures biotin 3 x sY peptide
Experimental: as §2

[12] = target: T6, PSGL-1(42-62) N-terminal peptide, sulfation state not told at the place (human, not fully specified; sulfation of Y46, Y48, Y51 not stated for these table columns); assay: mAb binding to PSGL-1(42-62)
T6 peptide: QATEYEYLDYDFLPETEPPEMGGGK

[13] = target: T7, Cynomolgus PSGL-1(ECD)-HIS (cynomolgus macaque); assay: ELISA, plate cyno PSGL-1(ECD)-HIS
T7 construct: also called Cyno PSGL1-His
T7 chain: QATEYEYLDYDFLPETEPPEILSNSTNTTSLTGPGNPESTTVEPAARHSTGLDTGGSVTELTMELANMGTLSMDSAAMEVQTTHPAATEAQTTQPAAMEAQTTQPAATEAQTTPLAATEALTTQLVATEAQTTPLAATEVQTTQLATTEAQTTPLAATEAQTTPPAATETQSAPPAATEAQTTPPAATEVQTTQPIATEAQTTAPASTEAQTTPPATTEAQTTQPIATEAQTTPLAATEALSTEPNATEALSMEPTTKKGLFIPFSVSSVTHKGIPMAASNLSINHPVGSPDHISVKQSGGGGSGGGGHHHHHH
Experimental: Antibody binding to plate-immobilized cyno PSGL-1(ECD) was determined either at one concentration (20 nM) or by generating full antibody binding curves (0.003-200 nM). A typical ELISA was performed by overnight coating at 4° C. with 3 ug/mL/25 ul per well of recombinant cyno PSGL-1(ECD) protein in PBS, pH 7.4, in high binding half-well plates (Corning Cat. #3690). […] Anti-PSGL-1 IgG in assay buffer (blocking buffer containing 0.05% tween 20) was added into test and control wells (20 nM/25 ul/well) and the plate incubated for 45 min at 37° C. […] The plate was incubated for 45 min at 37° C., and mAb bound to plate-immobilized target determined at A450 nm using HRP substrate (3,3′,5,5′-tetramethylbenzidine (TMB)). For each antibody, duplicate values were averaged and assay background subtracted.

B1: PSG3 (antibody, V domains shown)
VH: QVQLVQSGAEVKKPGSSVRVSCKASGGSFSSYGIHWVQQAPGQGLEWMGRIIPVLRIRNYAQKFHDRVTIDADTSTGTAYMELSSLTSDDTAVYYCAGSRQGVAPTGYWGQGTMVTVSS
VL: QAVLTQPSSLSASPGASASLTCNLRSGIDVGTYRIYWYQQKPGSPPQYLLRYKSDSDKQQGSGVPSRFSGTKDASANAGILLISGLQSEDEADYYCMIWHSNGWVFGGGTKLTVL
notes: Control anti-PSGL-1 mAb; only variable domains given
With B1 the EC50 [1] was roughly 0.1 nM, the EC50 [2] was 0.44 nM and the “EC50/EC50 3x(SO3)Y” value [3] was roughly 6 fold. The “EC50/EC50 3x(SO3)Y” value [4] was 1 fold, the “EC50/EC50 3x(SO3)Y” value [5] was roughly 6 fold and the EC50 [6] was roughly 600 nM. It also gave an EC50 [7] of 93 nM and an EC50 [8] of roughly 600 nM.

B2: SELK1 (antibody, V domains shown)
VH: QVQLQQSGPGLVKPSQTLSLTCAISGDSVSSNIAAWHWIRLSPSRGLEWLGRTYYRRSKWNYDYALSVKSRININPDTSKNLFSLQLNSVTPEDTAVYYCTRGGGRAHSAWGQGTLVTVSS
VL: EIVLTQSPGTLSVSPGERATLSCRASQSVSRSHLAWYQQKPGQAPRLLIFGASSRATGIPDRFSGSGSGTDFTLTISRLEPEDFAVYYCQQYGRPGVTFGQGTKVEIK
notes: as for B1
B2 showed an EC50 [1] of 0.02 nM, an EC50 [2] of 0.07 nM and an EC50 [6] of 129 nM. For the same binder, the EC50 [7] was 6.2 nM, the EC50 [9] was 167 nM and the EC50 [8] was 8.34 nM.

B3: 18F02.001 (antibody, IgG4, V domains shown)
VH: QVQLVQSGAEVKKPGSSVKVSCKASGYTFTSYWMHWVRQAPGQGLEWMGMIHPNSGRTNYNEKFKSRVTITVDKSTSTAYMELSSLRSEDTAVYYCARSDYWGQGTLVTVSS
VL: DIVMTQTPLSLSVTPGQPASISCRSSKSLLHSDGITYLYWFLQKPGQSPQLLIYRMSNLASGVPDRFSGSGSGTDFTLKISRVEAEDVGVYYCAQMLEFPRTFGQGTKLEIK
notes: Humanised
For B3, the “N-term peptide EC50 (normalized)” value [10] was 2.3 fold and the EC50 [11] was 160 nM.

B4: 18F02.002 (antibody, IgG4, V domains shown)
VH: B3 VH with Q1E
VL: B3 VL
notes: Humanised
For B4, the “N-term peptide EC50 (normalized)” value [10] was 2.1 fold and the EC50 [11] was 150 nM.

B5: 20H10 (antibody, V domains shown)
VH: QVQLQQPGTELVKPGASVKLSCKASGYTFTNFWMHWVRQRPGQGLEWIGKINPGNGGTRYNEKFKTKATLTVDRSSSTACIQLSSLTSEDSAVYYCTSTNWDPYFDYWGQGTTLTVSS
VL: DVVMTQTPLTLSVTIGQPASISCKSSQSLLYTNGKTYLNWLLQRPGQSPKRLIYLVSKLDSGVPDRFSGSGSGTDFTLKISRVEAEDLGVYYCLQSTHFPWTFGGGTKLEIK
notes: Mouse hybridoma mAb; only variable domains given
B5: no binding [12]; no binding [13].
